The assay has as its target D-dimer. Description: detection of D-dimer; format not described.

With “mouse monoclonal antibody AB424 directed to GGEL (Abcam, catalog number AB424)”, the titer amounted to 0.6 µg/mL.

For the origin of these results see patent US20190169313A1.
